What all share (assay type): biochemical, Z. mays
Series [1] deals with 4-hydroxyphenylpyruvate dioxygenase (HPPD). Briefly: OFF rate ratio: release of inhibitor from pre-formed enzyme-inhibitor complex. The note with it: Table 7; tembotrione; combinatorial variants. The method, then: A quantitative indicator of kOFF can be obtained by observing the time course of an HPPD reaction as inhibitor is released from a pre-formed enzyme-inhibitor complex. HPPD and inhibitor were incubated together at concentrations of 7.2 and 8 μM, respectively. Incubations with the same concentrations of enzyme but no inhibitor were done in parallel. After 1 hr at room temperature, 5 to 10 μl of the enzyme-inhibitor complex was dispensed into the wells of the assay plate. Reactions were started with the addition of 290 to 295 μl of 25 mM Hepes, pH 7, 2 mM ascorbate, 10 μM FeSO4, 100 μM HPP and 50 nM HGD. The reactions were monitored at 320 nm for 12 min. Reaction velocity accelerates as inhibitor is released from the enzyme until a steady state is reached, during which the reaction velocity is constant. The ratio of the steady state rate in mixtures containing herbicidal inhibitor to the initial velocity of mixtures lacking inhibitor is termed the “OFF rate ratio”.
Another parameter to record is the time span required for the reactions with inhibitor to reach the steady state. FIGS. 13C and 13D illustrate the contrasting time span in which maize wild-type HPPD (FIG. 13C) and an improved variant (SEQ ID NO:78) (FIG. 13D) dissociated from mesotrione, as indicated by the accelerating reaction rates. The plateau of absorbance is due to exhaustion of the substrate. With the improved variant, not only was the steady state attained in a shorter time span (80 sec for the variant versus 280 sec for wild type), the velocity attained was twice as high as with wild type, though the enzymes were present at the same concentration (240 nM). This is because a larger fraction of the variant enzyme is free of inhibitor compared to the wild-type enzyme, and the kcat for both is nearly the same, about 220 min^−1.

Series [2] shares this test system. As to the kind of experiment: Estimate of kcat from initial rate at saturating hydroxyphenylpyruvate without inhibitor (ON rate ratio assay). The source says: (§1) Higher KD (reduced affinity or increased insensitivity) can be attained with a numerically smaller ON rate, a larger OFF rate or both. To detect and quantify changes in kON and kOFF, observations of the time course of an HPPD reaction as inhibitor binds to and inactivates the enzyme (kON), or is released from a pre-formed enzyme-inhibitor complex (kOFF) were used, as shown in FIGS. 13A and 13B. In practice, a quantitative indicator of kON was obtained by monitoring the time courses of HPPD reactions containing 60 or 120 nM HPPD and 100 μM HPP in the presence and absence of 4 μM inhibitor (e.g., mesotrione or tembotrione). The ratio of the reaction rate with inhibitor to that without inhibitor during the 70 to 90 second interval of the reaction was termed the “ON rate ratio”. The smaller the actual kON, the more slowly the HPPD reaction decelerates and the higher the value is for the ON rate ratio. FIGS. 13A and 13B illustrate the contrasting reaction velocity in the 70-90 sec interval for maize wild-type HPPD (FIG. 13A) versus an improved variant (SEQ ID NO:78) (FIG. 13B).
Thirty nine variants were desensitized to tembotrione compared with the backbone enzyme, Round 7, variant 9070 (SEQ ID NO:2) and all were desensitized compared with maize wild type HPPD (SEQ ID NO:1). Because the assay for ON rate ratio includes an initial rate measurement at saturating hydroxyphenylpyruvate without inhibitor and with known enzyme concentration, an estimate of kcat was available. Taking into account kcat and insensitivity parameters, 30 variants were selected for measurement of substrate saturation kinetic parameters and re-evaluation of insensitivity to tembotrione. The kinetic and insensitivity parameters were determined as described in Example 1, and were multiplied to generate the “trait fitness” parameter. The complete list of variants, i.e., of selected single substitutions in SEQ ID NO:2, analyzed with multiple inhibitors and the results obtained are shown in Table 6. The same set of 30 variants were evaluated for insensitivity to mesotrione, sulcotrione, isoxaflutole (its active diketonitrile form, abbreviated DKN in Table 6) and topramezone.

The test system is the same in series [3]. Briefly: ON rate ratio: HPPD reaction rate with vs without inhibitor in the 70 to 90 second interval. The settings on record: Table 7; tembotrione; combinatorial variants.
Text: as §1

For series [4] the test system is unchanged. As to the kind of experiment: Insensitivity parameter (ON × OFF) and trait fitness (ON × OFF × kcat/KM or × kcat). Details: key to ON × OFF / Insensitivity, mesotrione, ON × OFF / Insensitivity, tembotrione, ON × OFF / Insensitivity, topramezone, ON × OFF / Insensitivity, sulcotrione, ON × OFF / Insensitivity, isoxaflutole (DKN), ON × OFF: insensitivity = ON rate ratio × OFF rate ratio (surrogate for KD). The source says: Because substrate and inhibitors bind in the same site, the high concentration of substrate present may competitively trap the inhibitor and prevent it from binding again. To be sure that improvement in ON rates is being taken into account, the ON and OFF rate ratios were multiplied, creating an “insensitivity parameter” that is a surrogate for KD. KD is expressed as kOFF/kON, but because the ON rate ratio is an inverse parameter (the higher the value of ON rate ratio, the lower the value of the represented phenomenon, kON), it is appropriate to multiply ON and OFF rate ratios rather then divide OFF rate ratio by ON rate ratio. Another parameter, which quantifies the combined catalytic and insensitivity properties of the enzyme is kcat/KM×ON rate ratio×OFF rate ratio, and is termed “trait fitness”. This parameter is intended to have a meaning similar to the commonly used expression kcat/KM×Ki.

Where [5] appears, read: Table 7, combinatorial variants.
[6] abbreviates: Table 7, tembotrione, combinatorial variants.

B1: P056028-F-01 (protein)
chain: MGPTPTATAAGAAVAAASAAEQAAFRLVGHRNFVRFNPRSDRFQTLAFHHVELWCADAASAAGRFSFALGVPLAARSDLSTGNSAHASLLLRSGSLSLLFTAPYAHGADAATAALPSFSAAAARRFAADHGLAVRAVALRVADAEDAFRASVAAGARPAFGPVDLGRGFRLAEVELYGDVVLRYVSYPDGGAGEPFLPGFEGVASPGAADYGLSRFDHIVGNVPELAPAAAYMAGFTGFHEFAEFTTEDVGTTESGLNSMALANNSENVLLPLNEPVHGTKRRSQIQTFLDHHGGPGVQHIALASDDVLRTLREMRARSAMGGFEFLPPPLSDYYDGVRRCAGDVLTEAQINECQELGVMVDRDDEGVLLQIFTKPVGDRPTFFLEIIQRIGCMEKDEKGQEYQKGGCGGFGKGNFGQLFRSIEDYEKSLEAKRAAAAATAQGS
modifications: Zea mays variant form created by artificial means.
As usually defined, the kcat is the number of substrate molecules converted per active site and unit of time at saturation. For the molecule B1, in series [1], the OFF rate ratio is recorded as 0.304. Also, the catalytic constant (kcat) in series [2] (Megatable 3, shuffled variants) was 0.522 s⁻¹; in series [2] (setting [5]) it was 0.522 s⁻¹. Also, the ON rate ratio in series [3] was 0.718. Moreover, the “ON × OFF” value is recorded as 0.218 in series [4] (Megatable 3, shuffled variants) and 0.218 in series [4] (setting [6]). For the same molecule, the “ON × OFF × kcat” value is reported as 6.82 in series [4] (Megatable 3, shuffled variants) and 6.82 in series [4] (setting [6]).

B2: P056028-E-02 (protein)
chain: MGPTPTATAAGAAVAAASAAEQAAFRLVGHRNFVRFNPRSDRFQTLAFHHVELWCADAASAAGRFSFALGVPLAARSDLSTGNSAHASLLLRSGSLSLLFTAPYAHGADAATAALPSFSAAAARRFAADHGLAVRAVALRVADAEDAFRASVAAGARPAFGPVDLGRGFRLAEVELYGDVVLRYVSYPDGAAGEPFLPGFEGVASSGAADYGLSRFDHIVGNVPELAPAAAYMAGFTGFHEFAEFTTEDVGTTESGLNSMALANNSENVLLPLNEPVHGTKRRSQIQTFLDHHGGPGVQHIALASDDVLRTLREMRARSAMGGFEFLPPPLSDYYDGVRRCAGDVLTEAQINECQELGVMVDRDDEGVLLQIFTKPVGDRPTFFLEIIQRIGCMEKDEKGQEYQKGGCGGFGKGNFGQLFKSIEDYEKSLEAKQAAAAATAQGS
modifications: Zea mays variant form created by artificial means.
B2: the OFF rate ratio in series [1] was 0.326. Besides, the catalytic constant (kcat) is 0.393 s⁻¹ in series [2] (Megatable 3, shuffled variants) and 0.393 s⁻¹ in series [2] (setting [5]). In addition, the ON rate ratio in series [3] was found to be 0.761. In addition, the “ON × OFF” value in series [4] (Megatable 3, shuffled variants) worked out at 0.248; in series [4] (setting [6]) it was 0.248. The “ON × OFF × kcat” value in series [4] (Megatable 3, shuffled variants) worked out at 5.86; in series [4] (setting [6]), 5.86.

B3: P056028-C-01 (protein)
chain: MGPTPTATAAGAAVAAASAAEQAAFRLVGHRNFVRFNPRSDRFQTLAFHHVELWCADAASAAGRFSFALGVPLAARSDLSTGNSAHASLLLRSGSLSLLFTAPYAHGADAATAALPSFSAAAARRFAADHGLAVRAVALRVADAEDAFRASVAAGARPAFGPVDLGRGFRLAEVELYGDVVLRYVSYPDGAAGEPFLPGFEGVASSGAADLGLSRFDHIVGNVPELAPAAAYMAGFTGFHEFAEFTTEDVGTTESGLNSMALANNSENVLLPLNEPVHGTKRRSQIQTFLDHHGGPGVQHIALASDDVLRTLREMRARSAMGGFEFLPPPLSDYYDGVRRCAGDVLTEAQINECQELGVMVDRDDEGVLLQIFTKPVGDRPTFFLEIIQRIGCMEKDEKGQEYQKGGCGGFGKGNFGQLFKSIEDYEKSLEAKQAAAAATAQGS
modifications: Zea mays variant form created by artificial means.
As for B3, the OFF rate ratio in series [1] was 0.310. In addition, the turnover number (kcat) was 0.432 s⁻¹ in series [2] (Megatable 3, shuffled variants) and 0.432 s⁻¹ in series [2] (setting [5]). For the same molecule, the ON rate ratio in series [3] is recorded as 0.742. Moreover, the “ON × OFF” value in series [4] (Megatable 3, shuffled variants) was 0.230; in series [4] (setting [6]) it was 0.230. In addition, the “ON × OFF × kcat” value in series [4] (Megatable 3, shuffled variants) is given as 5.95; in series [4] (setting [6]), 5.95.

B4: P056028-D-08 (protein)
chain: MGPTPTATAAGAAVAAASAAEQAAFRLVGHRNFVRFNPRSDRFQTLAFHHVELWCADAASAAGRFSFALGVPLAARSDLSTGNSAHASLLLRSGSLSLLFTAPYAHGADAATAALPSFSAAAARRFAADHGLAVRAVALRVADAEDAFRASVAAGARPAFGPVDLGRGFRLAEVELYGDVVLRYVSYPDGGAGEPFLPGFEGVASPGAADYGLSRFDHIVGNVPELAPAAAYMAGFTGFHEFAEFTTEDVGTTESGLNSMALANNSENVLLPLNEPVHGTKRRSQIQTFLDHHGGPGVQHIALASDDVLRTLREMRARSAMGGFEFLPPPLSDYYDGVRKCAGDVLTEAQINECQELGVMVDRDDEGVLLQIFTKPVGDRPTFFLEIIQRIGCMEKDEKGQEYQKGGCGGFGKGNFGQLFKSIEDYEKSLEAKRAAAAATAQGS
modifications: Zea mays variant form created by artificial means.
In the case of B4, the OFF rate ratio in series [1] is 0.361. The catalytic constant (kcat) in series [2] (Megatable 3, shuffled variants) is 0.458 s⁻¹; in series [2] (setting [5]) it was 0.458 s⁻¹. For the same molecule, in series [3], the ON rate ratio is recorded as 0.681. Also, the “ON × OFF” value in series [4] (Megatable 3, shuffled variants) was determined as 0.246; in series [4] (setting [6]) it was 0.246. The “ON × OFF × kcat” value turned out to be 6.77 in series [4] (Megatable 3, shuffled variants) and 6.77 in series [4] (setting [6]).

B5: P056028-C-07 (protein)
chain: MGPTPTATAAGAAVAAASAAEQAAFRLVGHRNFVRFNPRSDRFQTLAFHHVELWCADAASAAGRFSFALGVPLAARSDLSTGNSAHASLLLRSGSLSLLFTAPYAHGADAATAALPSFSAAAARRFAADHGLAVRAVALRVADAEDAFRASVAAGARPAFGPVDLGRGFRLAEVELYGDVVLRYVSYPDGGAGEPFLPGFEGVASPGAADYGLSRFDHIVGNVPELAPAAAYMAGFTGFHEFAEFTTEDVGTTESGLNSMALANNSENVLLPLNEPVHGTKRRSQIQTFLDHHGGPGVQHIALASDDVLRTLREMRARSAMGGFEFLPPPLSDYYDGVRKCAGDVLTEAQINECQRLGVMVDRDDEGVLLQIFTKPVGDRPTFFLEIIQRIGCMEKDEKGQEYQKGGCGGFGKGNFGQLFKSIEDYEKSLEAKRAAAAATAQGS
modifications: Zea mays variant form created by artificial means.
Take B5: in series [1], the OFF rate ratio is given as 0.382. In addition, the kcat was 0.353 s⁻¹ in series [2] (Megatable 3, shuffled variants) and 0.353 s⁻¹ in series [2] (setting [5]). The ON rate ratio in series [3] came out at 0.714. Further, the “ON × OFF” value in series [4] (Megatable 3, shuffled variants) amounted to 0.273; in series [4] (setting [6]) it was 0.273. For the same molecule, the “ON × OFF × kcat” value in series [4] (Megatable 3, shuffled variants) was determined as 5.80; in series [4] (setting [6]) it was 5.80.

The values are drawn from US11015206B2, “Compositions and methods comprising sequences having hydroxyphenylpyruvate dioxygenase (HPPD) activity” (PIONEER HI-BRED INTERNATIONAL, INC., priority 2014, dated 2021).
